The results in this text go back to paper PMC2034485 (Nucleic Acids Research, 2007).

In test [1] the target is ubiquitin (UniProt P0CG48 1-76). Description: SPR. (In general: Surface plasmon resonance follows binding to a sensor surface in real time, without labels.)
Test [2] concerns the target human Rad6 (hHR6B) (human, UniProt P63146 1-152). The test can be described thus: SEC. A general note: In gel filtration, larger molecules generally elute earlier.

human Rad6 (hHR6B), sequence (P63146 whole entry): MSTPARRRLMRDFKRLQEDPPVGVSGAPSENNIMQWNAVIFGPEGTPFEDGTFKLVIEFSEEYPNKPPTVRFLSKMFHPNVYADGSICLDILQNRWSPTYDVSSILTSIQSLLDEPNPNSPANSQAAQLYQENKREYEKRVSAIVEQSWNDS

The molecule TLKQVTKVDCPVCGVNIPESHINKHLDSCLSREEKKES (domain or fragment) [GST-ZnF (Rad18 zinc finger domain)] yielded a Kd in test [1] of 42.1 µM.
Still for that read-out and setting: the same measure for TLKQVTKVDCPVFGVNIPESHINKHLDSCLSREEKKES (domain or fragment) [GST-C207F ZnF]: 192 µM.

B1: GST-fused Rad18 (1–99), Ring domain (domain or fragment)
chain: MDSLAESRWPPGLAVMKTIDDLLRCGICFEYFNIAMIIPQCSHNYCSLCIRKFLSYKTQCPTCCVTVTEPDLKNNRILDELVKSLNFARNHLLQFALES
In the case of B1, the binding result in test [2] was “binds”.

In general, Kd refers to the equilibrium constant for the complex coming apart. Lower therefore signals a tighter complex.
